Results taken from article PMC6773438.

B1: Ramazzottius varieornatus damage suppressor protein (Rv Dsup) [Ramazzottius varieornatus] / mononucleosomes reconstituted by salt dialysis with purified recombinant Drosophila core histones [Drosophila] (parent)
chain 1: MASTHQSSTEPSSTGKSEETKKDASQGSGQDSKNVTVTKGTGSSATSAAIVKTGGSQGKDSSTTAGSSSTQGQKFSTTPTDPKTFSSDQKEKSKSPAKEVPSGGDSKSQGDTKSQSDAKSSGQSQGQSKDSGKSSSDSSKSHSVIGAVKDVVAGAKDVAGKAVEDAPSIMHTAVDAVKNAATTVKDVASSAASTVAEKVVDAYHSVVGDKTDDKKEGEHSGDKKDDSKAGSGSGQGGDNKKSEGETSGQAESSSGNEGAAPAKGRGRGRPPAAAKGVAKGAAKGAAASKGAKSGAESSKGGEQSSGDIEMADASSKGGSDQRDSAATVGEGGASGSEGGAKKGRGRGAGKKADAGDTSAEPPRRSSRLTSSGTGAGSAPAAAKGGAKRAASSSSTPSNAKKQATGGAGKAAATKATAAKSAASKAPQNGAGAKKKGGKAGGRKRK
chain 2: not shown
chain 3: not shown
chain 4: not shown
chain 5: not shown

Variants of: B1
Assay: gel mobility shift
Conditions: Dsup/Nucleosome 3.0, mononucleosome, 5S rDNA sequence (147 bp), parent: 73

response [% Bound]	Variant
47	chain 1 R363E R364E R367E

Same assay, conditions: Dsup/Nucleosome 4.5, mononucleosome, 5S rDNA sequence (147 bp), parent: 95

response [% Bound]	Variant
69	chain 1 R363E R364E R367E
